Where a chain is given by its changes, count along the chain named. Values joined by “and” are separate entries in the source; they are usually repeats but may differ in a detail not shown here. Equal entries are not always repeated.
Key:
[1] = target: T1, human BAFF-R expressed on cells (human, UniProt Q96RJ3 1-184); assay: flow cytometry, CHO-hBAFF-R cells
T1 construct: Cell surface BAFF-R, endogenous on B cell lines and primary B cells or overexpressed on isogenic CHO cells; also called hBAFF-R; hBAFF-R-CHO

[2] = target: T1, human BAFF-R expressed on cells; assay: flow cytometry, BJAB cells
recombinant human TACI = target: T2, recombinant human TACI (human, UniProt O14836 2-166, limits assumed); assay: SPR, immobilized AB1424 F3', analyte 500 nM TACI
T2 sequence (looked up): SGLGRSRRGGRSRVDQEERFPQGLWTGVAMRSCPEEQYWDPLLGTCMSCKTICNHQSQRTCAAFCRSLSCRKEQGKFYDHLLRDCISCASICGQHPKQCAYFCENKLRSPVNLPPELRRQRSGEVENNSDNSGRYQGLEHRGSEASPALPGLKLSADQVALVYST

[3] = target: T1, human BAFF-R expressed on cells; assay: flow cytometry, Jeko-1 cells
[4] = target: T3, cynomolgus NKG2D (recombinant mFc-tagged dimer) (cynomolgus, UniProt P61252 78-216); assay: SPR, kinetics fit, average
T3 construct: also called cyno NKG2D
T3 sequence (looked up): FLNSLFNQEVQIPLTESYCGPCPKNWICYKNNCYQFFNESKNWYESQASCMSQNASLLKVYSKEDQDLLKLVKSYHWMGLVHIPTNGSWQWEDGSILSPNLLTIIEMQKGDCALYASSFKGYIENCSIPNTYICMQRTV
Description: (§1) Two different fits were utilized to obtain the equilibrium affinity data: steady state affinity fit and kinetic fit.

[5] = target: T1, human BAFF-R expressed on cells; assay: flow cytometry, RL cells
cynomolgus CD16 [6] = target: T4, cynomolgus CD16 (cynomolgus, UniProt Q8SPW2 17-208, limits assumed); assay: SPR, average
T4 construct: also called Cyno CD16; cynomolgus FcγRIII
T4 sequence (Q8SPW2 17-208 limits assumed): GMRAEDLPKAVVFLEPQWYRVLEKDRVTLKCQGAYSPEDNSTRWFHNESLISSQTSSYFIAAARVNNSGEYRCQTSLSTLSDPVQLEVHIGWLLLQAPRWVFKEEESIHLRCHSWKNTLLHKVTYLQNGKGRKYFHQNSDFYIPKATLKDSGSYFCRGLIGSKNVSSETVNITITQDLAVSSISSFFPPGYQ

human FcRn = human FcRn (human, UniProt P55899 24-297; P61769 21-119); assay: SPR, pH 6.0, steady state; pH 6.0; first replicate
human FcRn, sequence (P55899 24-297 limits assumed, chain 1 of 2): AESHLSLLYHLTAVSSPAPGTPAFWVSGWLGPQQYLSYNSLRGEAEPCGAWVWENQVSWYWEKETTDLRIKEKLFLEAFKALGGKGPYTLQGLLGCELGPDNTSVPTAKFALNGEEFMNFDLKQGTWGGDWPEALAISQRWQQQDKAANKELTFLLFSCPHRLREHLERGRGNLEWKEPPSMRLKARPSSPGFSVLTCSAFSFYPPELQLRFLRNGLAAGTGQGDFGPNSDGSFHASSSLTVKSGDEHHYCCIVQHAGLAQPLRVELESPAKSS
human FcRn, sequence (P61769 21-119 limits assumed, chain 2 of 2): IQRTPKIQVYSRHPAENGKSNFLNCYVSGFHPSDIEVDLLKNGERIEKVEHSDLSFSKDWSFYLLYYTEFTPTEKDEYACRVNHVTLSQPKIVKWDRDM

[7] = target: T1, human BAFF-R expressed on cells; assay: flow cytometry, BJAB cells, control
[8] = target: T5, cynomolgus monkey BAFF-R expressed on cells (cynomolgus monkey); assay: flow cytometry, cynomolgus BAFF-R CHO cells
T5 construct: whole, on cells; also called cBAFF-R; cynoBAFF-R
Description: Isogenic cell lines overexpressing human and cynomolgus BAFF-R on the backbone of CHO cell line were designed.

human CD16a V158 = target: T6, human CD16a V158 (human, UniProt P08637 17-208); assay: SPR
T6 construct: also called hCD16aV; hCD16a V158
T6 sequence (P08637 17-208 F176V limits assumed): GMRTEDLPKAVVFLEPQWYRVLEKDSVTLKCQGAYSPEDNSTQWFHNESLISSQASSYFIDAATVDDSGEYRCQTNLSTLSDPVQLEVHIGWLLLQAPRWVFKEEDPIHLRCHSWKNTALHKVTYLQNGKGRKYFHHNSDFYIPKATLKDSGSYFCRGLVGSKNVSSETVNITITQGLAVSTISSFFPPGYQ

[9] = target: T3, cynomolgus NKG2D (recombinant …); assay: SPR, 1:1 kinetic fit
Description: (§2) NKG2D is a native dimer, therefore recombinant mFc-tagged NKG2D dimer was used for this experiment. Two different fits were utilized to obtain the equilibrium affinity data: steady state affinity fit and kinetic fit.

[10] = target: T3, cynomolgus NKG2D (recombinant …); assay: SPR, steady state fit, average
Description: as §1

[11] = target: T3, cynomolgus NKG2D (recombinant …); assay: SPR, steady state fit, average; remark: listed apart in the source
Description: as §2

[12] = target: T7, human NKG2D (recombinant mFc-tagged dimer) (human, UniProt P26718 78-216); assay: SPR, steady state fit, average
T7 construct: also called hNKG2D
T7 sequence (looked up): T3 sequence (looked up) with N38D, I128T
Description: as §2

human CD16a F158 = human CD16a F158 (human, UniProt P08637 17-208); assay: SPR, steady state
human CD16a F158, sequence (P08637 17-208 limits assumed): as the sequence (P08637 17-208 F176V limits assumed) above, with V160F counted along it

cynomolgus CD16 [13] = target: T4, cynomolgus CD16; assay: SPR
[14] = target: T7, human NKG2D (recombinant mFc-tagged …); assay: SPR, kinetics fit
Description: as §2

cynomolgus CD16 [15] = target: T4, cynomolgus CD16; assay: SPR, cynomolgus FcγRIII, summary table
[16] = target: T7, human NKG2D (recombinant mFc-tagged …); assay: SPR
Description: as §2

human CD32a R131 = target: T8, human CD32a R131 (human, UniProt P12318 36-218, limits assumed); assay: SPR, steady state
T8 construct: also called FcγRIIa R131
T8 sequence (looked up): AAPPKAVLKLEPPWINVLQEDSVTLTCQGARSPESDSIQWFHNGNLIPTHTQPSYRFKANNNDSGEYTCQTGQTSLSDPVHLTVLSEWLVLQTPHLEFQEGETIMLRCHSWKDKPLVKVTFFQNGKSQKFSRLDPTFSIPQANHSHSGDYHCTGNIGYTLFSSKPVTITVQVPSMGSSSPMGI

cynomolgus FcRn = target: T9, cynomolgus FcRn (cynomolgus, UniProt Q8SPV9 24-297; Q8SPW0 21-119); assay: SPR, pH 6.0, steady state; pH 6.0; second replicate
T9 construct: also called Cyno FcRn
T9 sequence (Q8SPV9 24-297 limits assumed, chain 1 of 2): as the sequence (P55899 24-297 limits assumed, chain 1 of 2) above, with N39D, E44Q, G99S, S189G, S190N, L217M, S269T counted along it
T9 sequence (Q8SPW0 21-119 limits assumed, chain 2 of 2): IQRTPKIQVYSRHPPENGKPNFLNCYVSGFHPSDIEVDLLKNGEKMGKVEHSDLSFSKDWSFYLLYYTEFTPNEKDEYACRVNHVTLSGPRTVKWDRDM

[17] = target: T3, cynomolgus NKG2D (recombinant …); assay: SPR, steady state fit
Description: as §2

[18] = target: T7, human NKG2D (recombinant mFc-tagged …); assay: SPR, steady state fit
Description: as §2

B1: AB1424/AB1612 F3′ TriNKET (bispecific antibody, human IgG1, kappa)
chain: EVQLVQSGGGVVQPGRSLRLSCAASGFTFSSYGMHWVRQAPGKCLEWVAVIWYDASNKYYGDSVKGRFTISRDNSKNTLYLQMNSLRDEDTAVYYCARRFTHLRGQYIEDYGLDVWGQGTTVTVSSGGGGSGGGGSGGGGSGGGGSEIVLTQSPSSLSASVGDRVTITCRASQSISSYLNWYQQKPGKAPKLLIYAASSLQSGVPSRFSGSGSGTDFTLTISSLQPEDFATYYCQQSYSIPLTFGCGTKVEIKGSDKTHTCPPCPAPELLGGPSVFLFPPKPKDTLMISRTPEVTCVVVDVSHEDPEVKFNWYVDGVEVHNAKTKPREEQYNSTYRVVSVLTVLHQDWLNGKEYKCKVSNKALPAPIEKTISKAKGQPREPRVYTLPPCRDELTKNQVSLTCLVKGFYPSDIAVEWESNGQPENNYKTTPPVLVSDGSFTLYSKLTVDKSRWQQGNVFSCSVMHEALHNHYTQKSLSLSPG
heavy: EVQLVESGGGLVKPGGSLRLSCAASGFTFSSYSMNWVRQAPGKGLEWVSSISSSSSYIYYADSVKGRFTISRDNAKNSLYLQMNSLRAEDTAVYYCARGAPIGAAAGWFDPWGQGTLVTVSSASTKGPSVFPLAPSSKSTSGGTAALGCLVKDYFPEPVTVSWNSGALTSGVHTFPAVLQSSGLYSLSSVVTVPSSSLGTQTYICNVNHKPSNTKVDKKVEPKSCDKTHTCPPCPAPELLGGPSVFLFPPKPKDTLMISRTPEVTCVVVDVSHEDPEVKFNWYVDGVEVHNAKTKPREEQYNSTYRVVSVLTVLHQDWLNGKEYKCKVSNKALPAPIEKTISKAKGQPREPQVCTLPPSRDELTENQVSLTCLVKGFYPSDIAVEWESNGQPENNYKTTPPVLDSDGSFFLYSWLTVDKSRWQQGNVFSCSVMHEALHNHYTQKSLSLSPG
light: DIQMTQSPSSVSASVGDRVTITCRASQGISSWLAWYQQKPGKAPKLLIYAASSLQSGVPSRFSGSGSGTDFTLTISSLQPEDFATYYCQQGVSFPRTFGGGTKVEIKRTVAAPSVFIFPPSDEQLKSGTASVVCLLNNFYPREAKVQWKVDNALQSGNSQESVTEQDSKDSTYSLSSTLTLSKADYEKHKVYACEVTHQGLSSPVTKSFNRGEC
notes: Chain S: anti-BAFF-R scFv-CH2-CH3; chain H: anti-NKG2D VH-CH1-CH2-CH3; chain L: anti-NKG2D VL-CL; also called AB1612-002
EC50 [1]: 0.7 nM
Max FOB [1]: 146 fold over background
EC50 [2]: 0.37 nM
Max FOB [2]: 16 fold over background
binding result (recombinant human TACI): no binding (tested: 500 nM)
EC50 [3]: 0.13 nM
Max FOB [3]: 7 fold over background
Kd [4]: 596 nM
EC50 [5]: 0.27 nM
Max FOB [5]: 8 fold over background
Kd (cynomolgus CD16 [6]): 271 nM
koff (cynomolgus CD16 [6]): 0.021 s⁻¹
kon (cynomolgus CD16 [6]): 76000 M⁻¹ s⁻¹
Kd (human FcRn): 1000 nM
EC50 [7]: 0.82 nM
EC50 [8]: 0.9 nM
Max FOB [8]: 141 fold over background
koff (human CD16a V158): 0.014 s⁻¹ and 0.013 s⁻¹
kon (human CD16a V158): 110000 M⁻¹ s⁻¹ and 100000 M⁻¹ s⁻¹
Kd [9]: 498 nM and 516 nM and 528 nM and 525 nM
Kd [10]: 609 nM
Kd [11]: 520 nM
Kd [12]: 456 nM
Kd (human CD16a F158): 1330 nM and 1260 nM and 1370 nM and 1430 nM
Kd (cynomolgus CD16 [13]): 261 nM and 269 nM and 283 nM and 260 nM
koff (cynomolgus CD16 [13]): 0.02 s⁻¹ and 0.021 s⁻¹
kon (cynomolgus CD16 [13]): 78000 M⁻¹ s⁻¹ and 72000 M⁻¹ s⁻¹
Kd [14]: 439 nM and 453 nM and 466 nM and 465 nM
Kd (cynomolgus CD16 [15]): 271 nM
koff [16]: 0.11 s⁻¹
kon [16]: 240000 M⁻¹ s⁻¹ and 230000 M⁻¹ s⁻¹
Kd (human CD32a R131): 1500 nM and 1300 nM and 1200 nM
Kd (cynomolgus FcRn): 1000 nM
Kd [17]: 501 nM and 516 nM and 535 nM and 530 nM
Kd [18]: 438 nM and 453 nM and 468 nM and 466 nM
